In the supplement of paper PMC7125110:
± gives the standard error. This sample holds only a part of the variants without activity.

B1: glmS ribozyme (parent)
chain: AUAAAAGCGCCAGAACUACAGAAAUGUAGUUGACGAGGAGGAGGUUUAUCGAAUUUUCGGCGGAUGCCUCCAAA

Assays:
Settings in all cases: with glucosamine-6-phosphate
glucosamine-6-phosphate [1] = variants of: B1; experiment: self-cleavage kobs at 160 uM GlcN6P; higher = faster cleavage; RNA array
Summary of the method: (§1)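 Barcoded ribozyme variants, transcribed in situ by E. coli RNA polymerase on sequenced MiSeq chips, were followed via a hybridised Cy3 probe at 37 °C. Glucosamine-6-phosphate ranged from 40 μM to 10 mM in HEPES/KCl/Mg(OAc)2 buffer. kobs came from decay fits to per-tile medians, and kcat and KM from weighted Michaelis–Menten fits.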

glucosamine-6-phosphate [2] = variants of: B1; experiment: self-cleavage kobs at 640 uM GlcN6P; higher = faster cleavage; RNA array
Summary of the method: as §1

glucosamine-6-phosphate [3] = variants of: B1; experiment: self-cleavage kobs at 2500 uM GlcN6P; higher = faster cleavage; RNA array
Summary of the method: as §1

glucosamine-6-phosphate [4] = variants of: B1; experiment: self-cleavage kobs at 10000 uM GlcN6P; higher = faster cleavage; RNA array
Summary of the method: as §1

Variant	self-cleavage kobs at 160 uM GlcN6P (glucosamine-6-phosphate [1])	self-cleavage kobs at 640 uM GlcN6P (glucosamine-6-phosphate [2])	self-cleavage kobs at 2500 uM GlcN6P (glucosamine-6-phosphate [3])	self-cleavage kobs at 10000 uM GlcN6P (glucosamine-6-phosphate [4])
A12U U69G C70A	7.03e-05 ± 2.1e-05 s⁻¹	8.9e-05 ± 2.3e-05 s⁻¹	3.11e-05 ± 1.5e-05 s⁻¹	–
G9C C10A G43C C67U	< 1e-05 s⁻¹	< 1e-05 s⁻¹	< 1e-05 s⁻¹	–
C10A A33C G44A A52G U65A	< 1e-05 s⁻¹	–	–	–
G32U G60C	< 1e-05 s⁻¹	< 1e-05 s⁻¹	< 1e-05 s⁻¹	–
C11G A42C	< 1e-05 s⁻¹	< 1e-05 s⁻¹	< 1e-05 s⁻¹	–
G35U U69A	< 1e-05 s⁻¹	< 1e-05 s⁻¹	< 1e-05 s⁻¹	–
U30A G32C G62A	< 1e-05 s⁻¹	–	< 1e-05 s⁻¹	–
A15C A42U U46G C50G	< 1e-05 s⁻¹	< 1e-05 s⁻¹	< 1e-05 s⁻¹	–
C11A G41U G43C	< 1e-05 s⁻¹	< 1e-05 s⁻¹	–	–
G13A A42G G43U C70A	< 1e-05 s⁻¹	< 1e-05 s⁻¹	–	< 1e-05 s⁻¹
G29A U31G G62A	< 1e-05 s⁻¹	–	–	–
G29C G41C G60A	< 1e-05 s⁻¹	< 1e-05 s⁻¹	< 1e-05 s⁻¹	< 1e-05 s⁻¹
U31G G43U G66U	< 1e-05 s⁻¹	–	< 1e-05 s⁻¹	–
G9U A48U U57A	< 1e-05 s⁻¹	–	< 1e-05 s⁻¹	< 1e-05 s⁻¹
G29C A33C C61G C68U	< 1e-05 s⁻¹	< 1e-05 s⁻¹	–	< 1e-05 s⁻¹
U30A G41U U57G G62A	< 1e-05 s⁻¹	< 1e-05 s⁻¹	< 1e-05 s⁻¹	–
A14G U31C U56A	0.0016 ± 0.00031 s⁻¹	0.00939 ± 0.0013 s⁻¹	0.0277 ± 0.0066 s⁻¹	–
A36C G40A	< 1e-05 s⁻¹	< 1e-05 s⁻¹	–	< 1e-05 s⁻¹
C10U A33U G62U C71A	< 1e-05 s⁻¹	< 1e-05 s⁻¹	< 1e-05 s⁻¹	< 1e-05 s⁻¹
C16G G62C A64U	< 1e-05 s⁻¹	–	–	–
G29A C50G	0.000108 ± 3.1e-05 s⁻¹	3.64e-05 ± 1.5e-05 s⁻¹	0.00038 ± 0.00019 s⁻¹	–
C16U G43U G59U	< 1e-05 s⁻¹	< 1e-05 s⁻¹	–	–
G9C G41A	< 1e-05 s⁻¹	–	< 1e-05 s⁻¹	< 1e-05 s⁻¹
C16U G37U C68G U69G	4.65e-05 ± 2.2e-05 s⁻¹	0.000144 ± 7.1e-05 s⁻¹	4.23e-05 ± 1.8e-05 s⁻¹	–
U30G G51U	< 1e-05 s⁻¹	–	–	< 1e-05 s⁻¹

Variant	self-cleavage kobs at 160 uM GlcN6P (glucosamine-6-phosphate [1])	self-cleavage kobs at 640 uM GlcN6P (glucosamine-6-phosphate [2])	self-cleavage kobs at 2500 uM GlcN6P (glucosamine-6-phosphate [3])	self-cleavage kobs at 10000 uM GlcN6P (glucosamine-6-phosphate [4])
A12U U45G U56A	0.000953 ± 0.00021 s⁻¹	0.00298 ± 0.0006 s⁻¹	–	–
C16U U55C	0.00153 ± 0.00037 s⁻¹	–	0.00585 ± 0.0013 s⁻¹	–
A33U G35C U57C U65C	< 1e-05 s⁻¹	< 1e-05 s⁻¹	< 1e-05 s⁻¹	–
C10U G51C	< 1e-05 s⁻¹	–	–	–
C10G G38U A42C	< 1e-05 s⁻¹	–	< 1e-05 s⁻¹	–
G29U G35U G38U A52G	< 1e-05 s⁻¹	< 1e-05 s⁻¹	–	–
G13A C67U	2.9e-05 ± 1.4e-05 s⁻¹	4.93e-05 ± 8.8e-06 s⁻¹	0.000122 ± 1.2e-05 s⁻¹	0.000405 ± 9e-05 s⁻¹
G37A G51A C71A	< 1e-05 s⁻¹	–	< 1e-05 s⁻¹	–
G13U A14U C58A C67U	5.09e-05 ± 1.8e-05 s⁻¹	0.000194 ± 4.3e-05 s⁻¹	0.000334 ± 7.5e-05 s⁻¹	–
G13U A36U G43A G51A C67G C70U	< 1e-05 s⁻¹	–	< 1e-05 s⁻¹	–
C16G U47A C50U A53G	< 1e-05 s⁻¹	–	–	–
C10G G29C C50G C58G A64U C70A	0.000119 ± 3.1e-05 s⁻¹	0.000201 ± 6.9e-05 s⁻¹	0.000165 ± 4e-05 s⁻¹	–
A12G G41U G51C C71A	< 1e-05 s⁻¹	< 1e-05 s⁻¹	< 1e-05 s⁻¹	–
C16A G35A G43A	< 1e-05 s⁻¹	< 1e-05 s⁻¹	< 1e-05 s⁻¹	–
C16U G29C G44U C67G	0.000224 ± 0.0001 s⁻¹	–	–	–
G29U A39G U56A	8.2e-05 ± 2.8e-05 s⁻¹	0.001 ± 0.00039 s⁻¹	0.00181 ± 0.00055 s⁻¹	–
C34G G63A	< 1e-05 s⁻¹	< 1e-05 s⁻¹	< 1e-05 s⁻¹	< 1e-05 s⁻¹
G37A G62C	< 1e-05 s⁻¹	< 1e-05 s⁻¹	< 1e-05 s⁻¹	< 1e-05 s⁻¹
A36C G41C C50U A64U C68A	< 1e-05 s⁻¹	< 1e-05 s⁻¹	< 1e-05 s⁻¹	< 1e-05 s⁻¹
C34A C58A	< 1e-05 s⁻¹	< 1e-05 s⁻¹	< 1e-05 s⁻¹	< 1e-05 s⁻¹
G35C U49G	< 1e-05 s⁻¹	< 1e-05 s⁻¹	< 1e-05 s⁻¹	–
C11U A39G G43U C58G C70A	< 1e-05 s⁻¹	–	< 1e-05 s⁻¹	–
C10U C11G A14G G43C A53C	< 1e-05 s⁻¹	< 1e-05 s⁻¹	< 1e-05 s⁻¹	–
G9U C34U U54A	< 1e-05 s⁻¹	–	–	–
C10G G40C	< 1e-05 s⁻¹	< 1e-05 s⁻¹	–	< 1e-05 s⁻¹

Variant	self-cleavage kobs at 160 uM GlcN6P (glucosamine-6-phosphate [1])	self-cleavage kobs at 640 uM GlcN6P (glucosamine-6-phosphate [2])	self-cleavage kobs at 2500 uM GlcN6P (glucosamine-6-phosphate [3])	self-cleavage kobs at 10000 uM GlcN6P (glucosamine-6-phosphate [4])
C10U A42G A53U	< 1e-05 s⁻¹	–	–	–
A12U G41U U45A	0.00011 ± 2.8e-05 s⁻¹	0.000308 ± 5.9e-05 s⁻¹	0.000989 ± 0.00025 s⁻¹	–
A14C G63C U69G	7.07e-05 ± 2.1e-05 s⁻¹	6.64e-05 ± 2.3e-05 s⁻¹	4.71e-05 ± 1.8e-05 s⁻¹	–
G32U G41A U47G C61A G62U	< 1e-05 s⁻¹	< 1e-05 s⁻¹	< 1e-05 s⁻¹	–
C34G C58U A64C C67G	4.06e-05 ± 2e-05 s⁻¹	7.23e-05 ± 2.6e-05 s⁻¹	–	–
G37U G51C A52U G63U	< 1e-05 s⁻¹	–	–	–
U31C A64U U65A	< 1e-05 s⁻¹	< 1e-05 s⁻¹	–	–
C11A G38C	< 1e-05 s⁻¹	–	< 1e-05 s⁻¹	–
U31G C68G	0.000192 ± 8.2e-05 s⁻¹	–	6.11e-05 ± 1.1e-05 s⁻¹	3.16e-05 ± 8.9e-06 s⁻¹
G29U A42G A53U	0.000316 ± 6.8e-05 s⁻¹	0.00125 ± 0.00026 s⁻¹	0.00271 ± 0.00069 s⁻¹	–
G37C C71G	< 1e-05 s⁻¹	–	–	< 1e-05 s⁻¹
G37U C50G	7.65e-05 ± 3.7e-05 s⁻¹	–	–	–
G35C G37C U46C G63U	< 1e-05 s⁻¹	< 1e-05 s⁻¹	< 1e-05 s⁻¹	–
G9U C16U	< 1e-05 s⁻¹	< 1e-05 s⁻¹	< 1e-05 s⁻¹	< 1e-05 s⁻¹
G9C A53G	< 1e-05 s⁻¹	–	< 1e-05 s⁻¹	< 1e-05 s⁻¹
G29A A39C C61G	< 1e-05 s⁻¹	< 1e-05 s⁻¹	–	< 1e-05 s⁻¹
A12C A64C C68A C71A	< 1e-05 s⁻¹	< 1e-05 s⁻¹	< 1e-05 s⁻¹	–
C34G G38U G44C U49C	< 1e-05 s⁻¹	–	–	–
A14G G35A U47C C67A	< 1e-05 s⁻¹	< 1e-05 s⁻¹	–	–
A14U U31G C67A	7.69e-05 ± 2.3e-05 s⁻¹	0.000354 ± 7.7e-05 s⁻¹	0.000746 ± 0.00014 s⁻¹	–
G29A U30G G35A G38U U46A C71G	< 1e-05 s⁻¹	–	–	–
G13C C68U C71U	< 1e-05 s⁻¹	< 1e-05 s⁻¹	–	–
U30A A48U G62A	< 1e-05 s⁻¹	< 1e-05 s⁻¹	< 1e-05 s⁻¹	–
G38A A42G G60A	< 1e-05 s⁻¹	–	–	–
G29C G44A G60A A64G	< 1e-05 s⁻¹	< 1e-05 s⁻¹	< 1e-05 s⁻¹	–

Variant	self-cleavage kobs at 160 uM GlcN6P (glucosamine-6-phosphate [1])	self-cleavage kobs at 640 uM GlcN6P (glucosamine-6-phosphate [2])	self-cleavage kobs at 2500 uM GlcN6P (glucosamine-6-phosphate [3])	self-cleavage kobs at 10000 uM GlcN6P (glucosamine-6-phosphate [4])
G37A G59A G62A	< 1e-05 s⁻¹	–	–	–
C16A U49C	< 1e-05 s⁻¹	< 1e-05 s⁻¹	–	< 1e-05 s⁻¹
A14U U30C G43A	< 1e-05 s⁻¹	< 1e-05 s⁻¹	< 1e-05 s⁻¹	–
A12G A33G	< 1e-05 s⁻¹	< 1e-05 s⁻¹	< 1e-05 s⁻¹	< 1e-05 s⁻¹
C16U G43U U57C	< 1e-05 s⁻¹	< 1e-05 s⁻¹	< 1e-05 s⁻¹	–
G32U C34A G40C U57A G62U	< 1e-05 s⁻¹	–	–	–
C34U A52C A64U C67U	< 1e-05 s⁻¹	< 1e-05 s⁻¹	< 1e-05 s⁻¹	–
C10G A12G G38C	< 1e-05 s⁻¹	< 1e-05 s⁻¹	–	–
A12G U47A C70U	5.89e-05 ± 2.2e-05 s⁻¹	0.000192 ± 3e-05 s⁻¹	0.000394 ± 9.5e-05 s⁻¹	–
G37U A42U A53G	< 1e-05 s⁻¹	–	< 1e-05 s⁻¹	–
A15U G38C C71A	< 1e-05 s⁻¹	–	< 1e-05 s⁻¹	–
A36G G41A G63U	< 1e-05 s⁻¹	< 1e-05 s⁻¹	–	–
C11G A36C G41C G60A	< 1e-05 s⁻¹	< 1e-05 s⁻¹	< 1e-05 s⁻¹	–
C10U A15U	< 1e-05 s⁻¹	–	–	< 1e-05 s⁻¹
G32A A42C	< 1e-05 s⁻¹	< 1e-05 s⁻¹	< 1e-05 s⁻¹	< 1e-05 s⁻¹
A14G G35A	< 1e-05 s⁻¹	< 1e-05 s⁻¹	< 1e-05 s⁻¹	< 1e-05 s⁻¹
G13U U31C A33U G41A G43C	< 1e-05 s⁻¹	–	–	–
A12U G13C U47G G60C	< 1e-05 s⁻¹	–	< 1e-05 s⁻¹	–
U31C G43U A48U U55A	< 1e-05 s⁻¹	< 1e-05 s⁻¹	< 1e-05 s⁻¹	–
A14G G35U G40A	< 1e-05 s⁻¹	–	–	–
C16G U46A C50A U69G	0.000562 ± 0.00018 s⁻¹	–	–	–
C34A G41C	< 1e-05 s⁻¹	< 1e-05 s⁻¹	< 1e-05 s⁻¹	< 1e-05 s⁻¹
G9U A39G	< 1e-05 s⁻¹	–	< 1e-05 s⁻¹	–
G9C G37A	< 1e-05 s⁻¹	< 1e-05 s⁻¹	< 1e-05 s⁻¹	–
